According to US7268108 (INSTITUT EUROPEAN DE BIOLOGIE CELLULAIRE, dated 2007):
[ ]: non-standard residue; d: D form. The star is where a group is joined. dPhe(4-NO2) = N[C@H](Cc1ccc([N+](=O)[O-])cc1)C(=O)O; 2Nal = N[C@@H](Cc1ccc2ccccc2c1)C(=O)O; Benzenesulfonyl = O=S(=O)(c1ccccc1)*; d2Thi = N[C@H](Cc1cccs1)C(=O)O; PyrProp = pyridinepropionyl; Nle = CCCC[C@H](N)C(=O)O

Target: melanocortin-1 receptor (MC-1r) on murine melanocytes (line S91 Cloudman) (murine, UniProt Q01727 1-315)
Test: cell-based or functional assay

Sequence of melanocortin-1 receptor (MC-1r) on murine melanocytes (line S91 Cloudman) (Q01727 whole entry): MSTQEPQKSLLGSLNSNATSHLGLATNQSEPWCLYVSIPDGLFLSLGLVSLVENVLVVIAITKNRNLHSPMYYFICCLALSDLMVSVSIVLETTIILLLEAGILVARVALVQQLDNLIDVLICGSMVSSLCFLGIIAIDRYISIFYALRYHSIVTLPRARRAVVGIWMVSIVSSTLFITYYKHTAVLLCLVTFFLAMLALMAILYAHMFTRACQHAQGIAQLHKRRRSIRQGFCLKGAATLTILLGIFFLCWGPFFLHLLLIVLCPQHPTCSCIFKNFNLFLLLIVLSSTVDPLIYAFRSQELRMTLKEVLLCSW

Row | Binder | cAMP production (as % of α-MSH)
1 | Benzenesulfonyl-[Nle]AH[dPhe(4-NO2)]KW-NH2 (SMILES CCCC[C@H](NS(=O)(=O)c1ccccc1)C(=O)N[C@@H](C)C(=O)N[C@@H](Cc1c[nH]cn1)C(=O)N[C@H](Cc1ccc([N+](=O)[O-])cc1)C(=O)N[C@@H](CCCCN)C(=O)N[C@@H](Cc1c[nH]c2ccccc12)C(N)=O) [Compound No. 7 in the Table, BzlSO2-Nle-Ala-His-DpNO2Phe-Lys-Trp-NH2] | 100 % of α-MSH
2 | Benzenesulfonyl-[Nle]AH[d2Thi]KW-NH2 (SMILES CCCC[C@H](NS(=O)(=O)c1ccccc1)C(=O)N[C@@H](C)C(=O)N[C@@H](Cc1c[nH]cn1)C(=O)N[C@H](Cc1cccs1)C(=O)N[C@@H](CCCCN)C(=O)N[C@@H](Cc1c[nH]c2ccccc12)C(N)=O) [Compound No. 8 in the Table, BzlSO2-Nle-Ala-His-DThi-Lys-Trp-NH2] | 65 % of α-MSH
3 | Ac-[Nle]AH[2Nal]KW-NH2 (SMILES CCCC[C@H](NC(C)=O)C(=O)N[C@@H](C)C(=O)N[C@@H](Cc1c[nH]cn1)C(=O)N[C@@H](Cc1ccc2ccccc2c1)C(=O)N[C@@H](CCCCN)C(=O)N[C@@H](Cc1c[nH]c2ccccc12)C(N)=O) [Compound No. 12 in the Table, Ac-Nle-Ala-His-L2,Nap-Lys-Trp-NH2] | 50 % of α-MSH

More lines, now with the values ahead:

Row | cAMP production (as % of α-MSH) | Binder
4 | 75 % of α-MSH | Ac-[Nle]AH[d2Thi]KW-NH2 (SMILES CCCC[C@H](NC(C)=O)C(=O)N[C@@H](C)C(=O)N[C@@H](Cc1c[nH]cn1)C(=O)N[C@H](Cc1cccs1)C(=O)N[C@@H](CCCCN)C(=O)N[C@@H](Cc1c[nH]c2ccccc12)C(N)=O) [Compound No. 9 in the Table, Ac-Nle-Ala-His-DThi-Lys-Trp-NH2]
5 | 115 % of α-MSH | PyrProp-[Nle]AH[dPhe(4-NO2)]KW-NH2 [Compound No. 10 in the Table, PyrProp-Nle-Ala-His-DpNO2Phe-Lys-Trp-NH2]
6 | 100 % of α-MSH | Ac-SYSMEHFRWGKPV-NH2
